Laboratory results reported in US20250326860A1 (ADAGENE PTE, published 2025).
Where a chain is given by its changes, count along the chain named.

Key:
[1] = biological target: T1, human CD20 on cells (human B cells; Raji, SU-DHL-8, SU-DHL-4, A3KAW, NAMALWA) (human, UniProt P11836 1-297); assay: binding to Raji cells
T1 construct: whole, on cells
T1 sequence (looked up): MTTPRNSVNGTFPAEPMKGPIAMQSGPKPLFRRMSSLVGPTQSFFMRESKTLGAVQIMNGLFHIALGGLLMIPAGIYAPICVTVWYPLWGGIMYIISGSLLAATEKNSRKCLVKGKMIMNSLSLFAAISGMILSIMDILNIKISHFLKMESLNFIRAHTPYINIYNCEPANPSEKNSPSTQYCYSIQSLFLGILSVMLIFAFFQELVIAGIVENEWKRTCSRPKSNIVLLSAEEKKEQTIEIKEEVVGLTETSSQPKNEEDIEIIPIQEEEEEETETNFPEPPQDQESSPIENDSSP

[2] = biological target: T1, human CD20 on cells (human B cells; …); assay: binding to human B cells
[3] = biological target: T2, human CD3 on cells (Jurkat cells, human T cells) (human, UniProt P07766 23-207); assay: binding to human CD3+ T cells
T2 construct: whole, on cells

[4] = biological target: T2, human CD3 on cells (Jurkat cells, human …); assay: flow cytometry, human CD3+ T cells
[5] = biological target: T2, human CD3 on cells (Jurkat cells, human …); assay: binding to human CD4+ T cells
[6] = biological target: T1, human CD20 on cells (human B cells; …); assay: flow cytometry, human B cells
Excerpt: (§1) Human and monkey PBMCs were isolated as mentioned above. Human B cells were further isolated from PBMCs using the EasySep™ Human B Cell Isolation Kit (Stem Cell Technologies). Monkey B cells were isolated from PBMCs using the Non-Human B Primate Cell Isolation Kit (Stem Cell Technologies). Purified human or monkey B cells were stained with the testing antibodies as the primary antibody and the APC-labelled anti-human-Fc antibody (BioLegend) as the secondary antibody. After washing, the cells were analyzed on the CytoFLEX flow cytometer (Beckman Coulter) and the data was analyzed by FlowJo software.

[7] = biological target: T3, cynomolgus monkey CD3 on T cells (cynomolgus monkey, UniProt Q95LI5 22-198); assay: flow cytometry, purified monkey CD3+ T cells
T3 construct: whole, on cells

[8] = biological target: T1, human CD20 on cells (human B cells; …); assay: flow cytometry, SU-DHL-8 cells
Method: (§2) Raji, SU-DHL-8, SU-DHL-4, A3KAW and NAMALWA were B-cell lymphoma cell lines with various CD20 expression levels on cell surface. Briefly, the test antibodies were serial diluted and were incubated with the tumor cells on ice. After washing, the cells were subsequently incubated with the APC-labelled anti-human-Fc secondary antibody (BioLegend) on ice. The cells were then washed with PBS prior to analysis by the CytoFLEX flow cytometer (Beckman Coulter). The data was analyzed by FlowJo software.

[9] = biological target: T1, human CD20 on cells (human B cells; …); assay: flow cytometry, Raji cells
Method: as §2

[10] = biological target: T2, human CD3 on cells (Jurkat cells, human …); assay: binding to human CD8+ T cells
[11] = biological target: T4, cynomolgus monkey CD20 on B cells (cynomolgus monkey, UniProt M4ZHZ6 1-297); assay: flow cytometry, monkey B cells
T4 construct: whole, on cells
T4 sequence: T1 sequence (looked up) with S25P, F31L, T51A, A157V, K217R, N226S, I227V, T239V
Excerpt: as §1

[12] = biological target: T1, human CD20 on cells (human B cells; …); assay: flow cytometry, A3KAW cells
Method: as §2

[13] = biological target: T1, human CD20 on cells (human B cells; …); assay: flow cytometry, SU-DHL-4 cells
Method: as §2

[14] = biological target: T3, cynomolgus monkey CD3 on T cells; assay: flow cytometry, monkey CD3+ T cells
[15] = biological target: T1, human CD20 on cells (human B cells; …); assay: flow cytometry, NAMALWA cells
Method: as §2

T2 sequence (P07766 23-207): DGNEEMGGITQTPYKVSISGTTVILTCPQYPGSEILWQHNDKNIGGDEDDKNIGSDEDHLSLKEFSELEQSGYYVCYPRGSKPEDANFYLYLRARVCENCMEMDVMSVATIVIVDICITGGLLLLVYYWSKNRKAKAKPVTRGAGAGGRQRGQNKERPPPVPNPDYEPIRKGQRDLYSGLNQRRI
T3 sequence (Q95LI5 22-198): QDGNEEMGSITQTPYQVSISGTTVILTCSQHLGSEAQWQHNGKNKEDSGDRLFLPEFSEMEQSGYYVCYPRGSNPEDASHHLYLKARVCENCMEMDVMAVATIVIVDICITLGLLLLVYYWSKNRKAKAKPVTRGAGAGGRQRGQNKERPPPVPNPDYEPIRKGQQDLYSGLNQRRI

EC50 [1]: 35 nM | EC50 [2]: 78.2 nM | EC50 [3]: > 2000 nM | max MFI [4]: 1090 MFI | EC50 [5]: > 2000 nM | EC50 [6]: 11.7 nM | max MFI [6]: 51600 MFI | binding result [7]: no binding | EC50 [8]: 43 nM | Max MFI [8]: 5790 MFI | EC50 [9]: 35 nM | Max MFI [9]: 24200 MFI | EC50 [10]: > 2000 nM | EC50 [11]: 14.4 nM | max MFI [11]: 36000 MFI | EC50 [12]: 121 nM | Max MFI [12]: 942000 MFI | EC50 [13]: 16 nM | Max MFI [13]: 2.67e+06 MFI | max MFI [14]: 174 MFI | EC50 [15]: 90.4 nM | Max MFI [15]: 656000 MFI
B1: TY25606 (bispecific antibody, human IgG1, kappa, N297A)
light: QIVLSQSPAILSASPGEKVTMTCRASSSVSYIHWFQQKPGKSPKPWIYATSNLASGVPVRFSGSGSGTSYSLTISRVEAEDAATYYCQQWTSNPPTFGGGTKVEIKRTVAAPSVFIFPPSDEQLKSGTASVVCLLNNFYPREAKVQWKVDNALQSGNSQESVTEQDSKDSTYSLSSTLTLSKADYEKHKVYACEVTHQGLSSPVTKSFNRGEC
heavy: EVQLVQSGAEVKKPGSSVKVSCKASGYTFTSYNMHWVRQAPGKGLEWIGAIYPGSGDTSYNQKFKGRVTITADKSTSTAYMELSSLRSEDTAVYYCARSTYYGGDWYFNVWGQGTLVTVSSASTKGPSVFPLAPSSKSTSGGTAALGCLVKDYFPEPVTVSWNSGALTSGVHTFPAVLQSSGLYSLSSVVTVPSSSLGTQTYICNVNHKPSNTKVDKKVEPKSCDKTHTCPPCPAPELLGGPSVFLFPPKPKDTLMISRTPEVTCVVVDVSHEDPEVKFNWYVDGVEVHNAKTKPREEQYASTYRVVSVLTVLHQDWLNGKEYKCKVSNKALPAPIEKTISKAKGQPREPQVYTLPPSRKKLTKNQVKLTCLVKGFYPSDIAVEWESNGQPENNYKTTPPVLDCDGSFFLYSKLTVDKSRWQQGNVFSCSVMHEALHNHYTQKSLSLSPGK
chain: EVGSYPYDDPDCPSHESDCDQGGGPLGLAGGSQAVVTQEPSLTVSPGGTVTLTCGSSTGAVTTSNYPNWVQQKPGQAPRGLIGGTNKRAPGVPARFSGSLLGGKAALTLSGAQPEDEAEYYCALWYSNLWVFGGGTKLTVLGGGGSGGGGSGGGGSGGGGSEVQLVESGGGLVQPGGSLRLSCAASGFTFNTYAINWVRQAPGKGLEWVGRIRSKYNNYATYYAESVKGRFTISRDDSKNTLYLQINSLRAEDTAVYYCVRHGNFGTSYVSWFAYWGQGTLVTVSSEPKSSDKTHTCPPCPAPELLGGPSVFLFPPKPKDTLMISRTPEVTCVVVDVSHEDPEVKFNWYVDGVEVHNAKTKPREEQYASTYRVVSVLTVLHQDWLNGKEYKCKVSNKALPAPIEKTISKAKGQPREPQVYTDPPSRDELTKNQVSLTCLVDGFYPSDIAVEWESNGQPENCYKTTPPVLDSDGSFFLYSKLTVDKSRWQQGNVFSCSVMHEALHNHYTQDSLSLSPGK
notes: also called SAFEbody/bispecific
